Reference: patent US20210008175A1, “BACTERIOPHAGE LYSIN AND ANTIBIOTIC COMBINATIONS AGAINST GRAM POSITIVE BACTERIA” (priority 2012, published 2021)

How the values were obtained:
[1] = test system: Streptococcus agalactiae, Group B; assay: MIC, broth microdilution (CLSI M07-A9); assay type: cell-based; conditions: 51 tested
[2] = test system: MRSA strain MW2 and MSSA strain ATCC 29213; assay: MIC in the presence of surfactant (Survanta), broth microdilution; assay type: cell-based, Staphylococcus aureus; conditions: range from 1.25 to 15% surfactant
[3] = test system: Staphylococcus aureus; assay: MIC, broth microdilution (CLSI M07-A9); assay type: cell-based; conditions: for MIC90 / MIC90 [uM]: with reducing agent

B1: PlySs2: bacteriophage lysin derived from Streptococcus suis, amino acid sequence of FIG. 29 (SEQ ID NO: 1), N-terminal CHAP and C-terminal SH3 domain (protein, listed as Streptococcus suis)
chain: MTTVNEALNNVRAQVGSGVSVGNGECYALASWYERMISPDATVGLGAGVGWVSGAIGDTISAKNIGSSYNWQANGWTVSTSGPFKAGQIVTLGATPGNPYGHVVIVEAVDGDRLTILEQNYGGKRYPVRNYYSAASYRQQVVHYITPPGTVAQSAPNLAGSRSYRETGTMTVTVDALNVRRAPNTSGEIVAVYKRGESFDYDTVIIDVNGYVWVSYIGGSGKRNYVATGATKDGKRFGNAWGTFK
- MIC 50% [1]: 8 µg/mL
- MIC 90% [1]: 16 µg/mL
- MIC Range [1]: 1 to 64 µg/mL
- inhibition of MIC by surfactant [2]: 8 fold
- MIC90 ([3]; DRSA (n = 8)): 4
- MIC90 [uM] ([3]; DRSA (n = 8)): 0.15 µM
- MIC 90% ([3]; Daptomycin-resistant (8)): 4
- MIC90 ([3]; LRSA (n = 5)): 2
- MIC90 [uM] ([3]; LRSA (n = 5)): 0.08 µM
- MIC 90% ([3]; Linezolid-resistant (5)): 2
- MIC90 ([3]; MRSA (n = 45)): 4
- MIC90 [uM] ([3]; MRSA (n = 45)): 0.15 µM
- MIC90 ([3]; MSSA (n-28)): 4
- MIC90 [uM] ([3]; MSSA (n-28)): 0.15 µM
- MIC 50% ([3]; Methicillin resistant (120)): 4 µg/mL
- MIC 90% ([3]; Methicillin resistant (120)): 8 µg/mL
- MIC Range ([3]; Methicillin resistant (120)): 1 to 16 µg/mL
- MIC 50% ([3]; Methicillin susceptible (103)): 4 µg/mL
- MIC 90% ([3]; Methicillin susceptible (103)): 8 µg/mL
- MIC Range ([3]; Methicillin susceptible (103)): 1 to 16 µg/mL
- MIC90 ([3]; VISA (n = 10)): 32
- MIC90 [uM] ([3]; VISA (n = 10)): 1.2 µM
- MIC90 ([3]; VRSA (n = 14)): 2
- MIC90 [uM] ([3]; VRSA (n = 14)): 0.08 µM
- MIC 90% ([3]; Vancomycin-intermediate (31)): 32
- MIC 90% ([3]; Vancomycin-resistant (14)): 4
- MIC ([3]; all strains tested including 103 MSSA and 120 MRSA isolates): 8 µg/mL
- MIC ([3]; strain MW2, without DTT): 32 µg/mL
